Laboratory results as given in patent US20120213761A1 (MEDIZINISCHE UNIVERSITAET WIEN, published 2012).

Target: T1, tumor necrosis factor receptor-associated factor 2 (TRAF2), endogenous, in human cardiac tissue (human, UniProt Q12933 2-501)
T1 construct: Immunoprecipitated from human cardiac tissue or tissue culture lysates with a TRAF2 antibody (BD Pharmingen)
T1 sequence (looked up): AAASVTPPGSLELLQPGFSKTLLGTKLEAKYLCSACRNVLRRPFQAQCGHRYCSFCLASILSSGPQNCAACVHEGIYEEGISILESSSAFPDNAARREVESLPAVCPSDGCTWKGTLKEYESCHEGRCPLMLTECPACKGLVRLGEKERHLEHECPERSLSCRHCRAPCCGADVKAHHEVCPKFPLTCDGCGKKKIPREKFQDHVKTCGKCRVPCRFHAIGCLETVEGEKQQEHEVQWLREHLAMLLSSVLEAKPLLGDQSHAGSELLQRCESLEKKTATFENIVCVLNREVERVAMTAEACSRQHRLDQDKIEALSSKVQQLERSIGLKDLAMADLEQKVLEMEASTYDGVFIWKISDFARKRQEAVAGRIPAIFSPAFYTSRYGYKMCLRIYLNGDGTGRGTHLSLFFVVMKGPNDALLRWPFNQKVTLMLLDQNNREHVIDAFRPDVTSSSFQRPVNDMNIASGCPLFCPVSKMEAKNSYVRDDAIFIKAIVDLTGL
Assay: co-IP of LV myocardial lysates, Western blot (FIG. 2A)
Description: Human cardiac tissue was lysed in the lysis buffer containing 20 mM Tris (pH 7.5), 135 mM NaCl, 2 mM ethylenediaminetetraacetic acid (EDTA), 2 mM dithiothreitol (DTT), 25 mM β-glycerophosphate, 2 mM sodium pyrophosphate, 10% glycerol, 1% Triton X-100, 1 mM sodium orthovanadate, 10 mM NaF and 1 mM phenylmethylsulfonyl fluoride (PMSF) supplemented with complete protease inhibitor cocktail (Roche Applied Science, Indianapolis, Ind., USA) at 4 C as described (Aharinejad et al., 2005). Lysates were centrifuged (15 000 g) at 4 C for 15 min. For identify GSTP1-TRAF2 complexes formation proteins (500 μg) were immunoprecipitated with TRAF2 antibody (0.5 μg, BD Pharmingen, San Diego, Calif.). […]
Protein lysates (50 μg/lane) were separated by SDS-PAGE (10%) prior to electrophoretic transfer onto a Nitrocellulose membrane (Bio-Rad, Hercules, Calif.) as described (Aharinejad et al., 2005). […] Protein loading was assessed by Ponceau S staining and immunodetection was performed by chemiluminescence (Supersignal-West-Pico, Pierce, Rockford, Bands were quantified by ImageQuant software and specific protein signals were normalized to loading controls and expressed as arbitrary units. The average value of three measurements in each sample was used for data analysis.

B1: Glutathione S-transferase P1 (GSTP1), endogenous, in human left ventricular myocardial lysates (enzyme)
chain: PPYTVVYFPVRGRCAALRMLLADQGQSWKEEVVTVETWQEGSLKASCLYGQLPKFQDGDLTLYQSNTILRHLGRTLGLYGKDQQEAALVDMVNDGVEDLRCKYISLIYTNYEAGKDDYVKALPGQLKPFETLLSQNQGGKTFIVGDQISFADYNLLDLLLIHEVLAPGCLDAFPLLSAYVGRLSARPKLKAFLASPEYVNLPINGNGKQ
notes: also called GST-pi; GSTP1-1
binding result: binds
